Test [1] addresses YU2_(gp140) (foldon trimer) (HIV-1 (strain YU2)).
Test [2] addresses BG505_(SOSIP.664) Env trimer (HIV-1 BG505 (clade A), SOSIP.664 with …, stabilised).

B1: 561_01_23 (antibody, V domains shown)
VH: QLVQSGGGVRRPGASVKISCETPEYTFTKYWLHWLRQAPGRGLEWMGVVSPHGGRPMFAFEFRDRLTLTRDIHTTTHYMELRGLTSDDTAVYFCARDSFGETFRGHDQPYQMDVWGGGTTVVVSS
VL: EPVLTQSPGTLSLSPGEGATLSCRARQGFSADHVAWFQKKPGRPPRLLIFEASRRASGTPERFSGGGSGPEYTLTITRVEPEDFAVYYCQSYGSITPLVFGGGTRVDVK
Turning to B1, the binding result in test [1] and in test [2] was “binds” throughout.

B2: 561_01_29 (antibody, V domains shown)
VH: QLVQSGGGVRRPGASVKVSCETPEYTFTKYWLHWLRQAPGRGLEWMGVVSPHGGRPMFAFEFRDRLTLTRDIHTTTHYMELRGLTSDDTAVYFCARDSFGETFRGHDQPYQMDLWGGGTTVVVSS
VL: EPVLTQSPGTLSLSPGEGVTLSCRARQGFSADHVAWFQKKPGRPPRLLIFETSRRASGTPERFSGGGSGPEYTLTITRVEPEDFAVYYCQSYGSITPLVFGGGTRVDVK
With B2, the binding result in test [1] and in test [2] was “binds” each time.

B3: 561_03_07 (antibody, V domains shown)
VH: QLVQSGGGVRRPGASVKISCETPEDTFTKYWLHWLRQAPGQGLEWMGVVSPHGGRPMFAFEFRDRLTLTRDIHTTTHFMELGGLTSDDTAVYYCARDPFGETFRGHDQPYRMDVWGGGTTIVVSS
VL: EPVLTQSPGTLSVSPGEGATLSCRARQGFSADHVAWFQKKPGRPPRLLIFEASRRASGTPERFSGSGSGPEYTLTITRVEPEDFAVYYCQSYGSITPLVFGGGTRVDVK
Regarding B3, the binding result in test [1] and in test [2] was “binds” each time.

B4: 561_02_21 (antibody, V domains shown)
VH: QLVQSGGGVKRPGASVKISCETPEYTFTKYWLHWLRQAPGQGLEWMGVVSPHGGRPMFAFEFRDRLTLTRDIHTTTHYMELGGLTLDDTAVYYCARDPFGETFRGREQPYQMDVWGGGTTIVVTS
VL: EALLTQSPGTLSLSPGEGATLSCRARQGFSADHVAWFQKKPGRPPRLLIFEASRRASGTPERFSGSGSGPEYTLTITRVEPEDFAVYYCQSYGSITPLVFGGGTRVDVK
With B4, the binding result in test [1] and in test [2] was “binds” in each case.

B5: 561_02_12 (antibody, V domains shown)
VH: QLVQSGGGVRRPGASVKISCETPEDTFTKYWLHWLRQAPGQGLEWMGVVSPHGGRPMFAFEFRDRLTLTRDIHTTTHFMELRGLTSDDTAVYYCARDPFGETFRGHDQPYRMDVWGGGTTIVVSS
VL: EPVLTQSPGTLSVSPGEGATLSCRARQGFSADHVAWFQKKPGRPPRLLIFEASRRASGTPERFSGSGSGPEYTLTITRVEAEDFAVYYCQSYGSITPLVFGGGTRVDVK
With B5, the binding result in test [1] and in test [2] was “binds” throughout.

B6: 561_03_59 (antibody, V domains shown)
VH: QRRLFQSGTEVKRPGASVRISCRADDDPYTDDDTFTKYWTHWIRQAPGQRPEWLGVISPHFARPIYSYKFQDRLTLTRDSSLTGVYLELKGLQLDDSGIYFCARDPFGDRAPHYNYHMDVWGGGTAVIVSS
VL: EVVLTQSPAILSVSPGDRVSFSCRASEGLDTSQLAWYRFKRGQIPTLVIFATSNRARGTPDRFSGSGSGADFTLTINRVEPEDFATYYCQRYGATPITFGGGTTLDKK
As for B6, the binding result in test [1] and in test [2] was “binds” each time.

B7: 561_08_52 (antibody, V domains shown)
VH: QLVQWGGGVKRPGASVRISCQCPEDTFTKYYIHWVRQAPGRGLEWLGMVSPHGGRPFHTSEFRDRLTMTRDIHETTHHMVLSGLGVADSGTYFCARDPLGEKSPAYSHHMDVWGGGATVIVSS
VL: AVVLTQSPVTLSVSPGETAILSCRASHGLDTRHVTWFQQKRGQAPRLLIFATYRRASGVSDRFRATDSGSATDFNLTITAVEPADFATYFCQTYGAITPITFGGGTKVDLK
As for B7, the binding result in test [1] and in test [2] was “binds” in each case.

B8: 561_09_89 (antibody, V domains shown)
VH: QLVQWGGGVKRPGASVRISCQCPEDTFTKYYIHWVRQAPGRGLEWLGMVSPHGGRPFHTSEFRDRLTMTREIHETTHHMVLSGLGVGDSGTYFCARDPLGEKSPAYSHHMDVWGGGATVIVSS
VL: AVVLTQSPVTLSVSPGESAVLSCRASHGLDTRHVTWFQQKRGQAPRLLIFATSRRASGVSDRFRATDGGSATDFNLTITAVEPADFATYYCQTYGAITPITFGGGTKLDLK
Take B8: the binding result in test [1] and in test [2] was “binds” in each case.

B9: 561_01_21 (antibody, V domains shown)
VH: QRRLFQSGTEVKRPGASVKISCRADDDPYTDDDTFTKYYTHWIRQAPGQRPEWLGVISPHFARPIYSYKFQDRLTLTRDSSLTAVYFELRGLQPDDTGIYFCARDPFGDMYPHYNYHMDVWGGGTTVIVSA
VL: EVVLTQSPAILSVSPGDRVILSCKASEGLSSSDLAWYRFKGGQIPTLVIFGTSTRARGTPDRFSGSGSGTDFTLTISRVEPEDFATYYCQRYGGTPITFGGGTTLDKK
With B9, the binding result in test [1] and in test [2] was “binds” in each case.

B10: 561_01_54 (antibody, V domains shown)
VH: QGRLFQSGTEVKRPGASVKISCRADDDPYTDDDTFTKYYTHWIRQAPGQRPEWLGVISPHFARPIYSYKFQDRLTLTRDSSLTAVYFELRDLQSDDTGIYFCARDPFGDMYPHYNSHMDVWGGGTTVIVSA
VL: EVVLTQSPAILSVSPGDRVILSCKASEGLSSSDLAWYRFKSGQIPTLVIFGASNRARGTPDRFSGSGSGTDFTLTINRVEPEDFATYYCQRYGGTPITFGGGTTLDKK
For B10, the binding result in test [1] and in test [2] was “binds” in each case.

B11: 561_10_07 (antibody, V domains shown)
VH: QGRFFQSGAEVKRPGASVRISCRADDDPYTDDDTFTKYWTHWIRQAPGQRPEWLGVISPHFARPIYSYKFRDRLTLTRDSSLTAVYLELQGLQPDDSGIYYCARDPFGDRAPHYNYHMDVWGGGTAVIVSS
VL: EVVLTQSPAILSVSPGDRVILSCRASEGLDPTHLAWYRFKRGQIPTLVIFGTSNRARGTPDRFSGSGSEADFTLTITRVEPEDFATYYCQRYGGTPITFGGGTTLDKK
For B11, the binding result in test [1] and in test [2] was “binds” throughout.

B12: 561_02_22 (antibody, V domains shown)
VH: QGRLFQSGAEVKRPGASVKISCRADDDPYTDDDTFTKYYTHWIRQAPGQRPEWLGVISPHFARPIYSYKFRDRLTLTRDSSLTAVYFELRGLQPDDTGIYFCARDPFGDMYPHYNYHMDVWGGGTTVIVSA
VL: EVVLTQSPAILSVSPGDRVILSCKASEGLSSSDLAWYRFKGGQIPTLVIFATSNRARGTPDRFSGSGSGTDFTLTISKVQPEDFATYYCQRYGGTPITFGGGTTLDKK
As to B12, the binding result in test [1] and in test [2] was “binds” each time.

B13: 561_02_47 (antibody, V domains shown)
V domain 1: QRRLFQSGTEVKRPGASVKISCRADDDPYTDDDTFTKYYTHWIRQAPGQRPEWLGVISPHYARPIYSYKFQDRLTLTRDSSLTAVYFELRGLQPDDTGIYFCARDPFGDMYPHYNYHMDVWGGGTTLIVSA
V domain 2: EVVLTQSPAILSVSPGDRVILSCKASEGLSSSDLAWYRFKSGQIPTLVIFGASNRARGTPDRFAGSGSGTDFTLTINRVEPEDFATYYCQRYGGTPITFGGGTTLDKK
For B13, the binding result in test [1] and in test [2] was “binds” throughout.

B14: 561_02_27 (antibody, V domains shown)
VH: QGRLFQSGTEVKRPGASVKISCRADDDPYTDDDTFTKYYTHWIRQAPGQRPEWLGVISPHYARPIYSYKFRDRLTLTRDSSLTAVYFELRGLQPDDTGIYFCARDPFGDMYPHYNYHMDVWGGGTTVIVSA
VL: EVVLTQSPAILSVSPGDRVILSCKASEGLSSSDLAWYRFKGGQIPTLVIFGASNRARGTPDRFSGSGSGTDFTLTINRVEPEDFATYYCQRYGGTPITFGGGTTLDKK
As for B14, the binding result in test [1] and in test [2] was “binds” each time.

B15: 561_01_33 (antibody, V domains shown)
VH: QGRLFQSGTEVKRPGASVKISCRADDDPYTDDDTFTKYYTHWIRQAPGQRPEWLGVISPHFARPIYSYKFRDRLTLTRDSSLTAVYFELRGLQPDDTGIYFCARDPFGDMYPHYNYHMDVWGGGTTVIVSA
VL: EVVLTQSPAILSVSPGDRVILSCKASEGLSSSDLAWYRFKGGQIPTLVIFGTSNRARGTPDRFSGSGSGTDFTLTINRVQPEDFATYYCQRYGGTPITFGGGTTLDKK
On to B15, for which the binding result in test [1] and in test [2] was “binds” in each case.

B16: 561_02_10 (antibody, V domains shown)
VH: QGRLFQSGTEVKRPGASVKISCRADDDPYTDDDTFTKYHTHWIRQAPGQRPEWLGVISPHYARPIYSYKFQDRLTLTRDSSLTAVYFELRGLQPDDTGIYFCARDPFGNMYPHYNYHMDVWGGGTTVIVSA
VL: EVVLTQSPAILSVSPGDRVILSCKASEGLSSSDLAWYRFKRGQIPTLVIFGASTRARGTPDRFSGSGSGTDFTLTINRVEPEDFATYYCQRYGGTPITFGGGTTLDKK
As for B16, the binding result in test [1] and in test [2] was “binds” throughout.

B17: 561_09_23 (antibody, V domains shown)
VH: QAHLFQSGAELKRPGASVRISCRADDDPYTDDDTFTKYYTHWIRQAPGQRPEWLGVISPHFARPIYSYKFQDRLTLTRDSSLTAVYLELRSLRLDDTGIYYCARDPFGERAPHYNYHMDVWGAGTTVIVSS
VL: EVVLTQSPAILSASPGDRVVLSCRASEGLDSSQLAWYRFKDGQIPRLVLFGVSNRARGTPDRFSGGGSGADFTLTISRVEREDFATYYCQRFGATPITFGGGTRLDMN
As to B17, the binding result in test [1] and in test [2] was “binds” throughout.

B18: 561_09_71 (antibody, V domains shown)
VH: QLAQSGGGVKKPGASVKISCVTPESTFTKYWLHWVRQAPGQGFEWLGVVSPHGGRPMFANKFRDRLTLTRDIHTTTHYMELRGLTSDDTAIYYCARDSFGETFRHSGDQPYQMDVWGGGTNIVVSS
VL: EPVLTQSPGTLSLSPGERATLSCRASQGFSVDHLAWFQKRPGRPPRLLIFETSRRANGSPDRFSGSASGAEYTLTISNVEPEDFAVYYCQSYGSITPLIFGGGTRVDVK
As to B18, the binding result in test [1] and in test [2] was “binds” each time.

Source of the values: PMC7042716 (Cell, 2020).
